# Source: the supplement of paper PMC10567573
# B1: ANKRD44 (parent)
# chain: FHCIETLVTTGANVNETDDWGRTA
# Variants of: B1
# Assay: protein stability index of a GFP-peptide fusion (GPS, HEK-293T) (PSI 1-6); higher = more stable
# Details: c terminus: a fixed tail appended
# 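Note: lentivirally expressed fusions sorted by FACS into six bins by GFP to DsRed ratio, PSI derived from sequencing read proportions per bin multiplied by bin number.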
row,Variant,protein stability index
1,FHCIETLVTTGANVNHTDDWGRTA [E16H],2.32
2,FHCIETLVTTGANVNITDDWGRTA [E16I],1.52
3,FHCIETLVTTGANVNKTDDWGRTA [E16K],2.5
4,FHCIETLVTTGANVNLTDDWGRTA [E16L],1.8
5,FHCIETLVTTGANVNMTDDWGRTA [E16M],1.56
6,FHCIETLVTTGANVNNTDDWGRTA [E16N],1.97
7,FHCIETLVTTGANVNPTDDWGRTA [E16P],2
8,FHCIETLVTTGANVNQTDDWGRTA [E16Q],1.45
9,FHCIETLVTTGANVNRTDDWGRTA [E16R],1.76
10,FHCIETLVTTGANVNSTDDWGRTA [E16S],1.78
11,FHCIETLVTTGANVNTTDDWGRTA [E16T],1.53
12,FHCIETLVTTGANVNVTDDWGRTA [E16V],1.64
13,FHCIETLVTTGANVNWTDDWGRTA [E16W],2.43
14,FHCIETLVTTGANVNYTDDWGRTA [E16Y],2.32
15,FHCIETLVTTGANVNEADDWGRTA [T17A],1.92
16,FHCIETLVTTGANVNECDDWGRTA [T17C],2.14
17,FHCIETLVTTGANVNEDDDWGRTA [T17D],2.29
18,FHCIETLVTTGANVNEEDDWGRTA [T17E],2.84
19,FHCIETLVTTGANVNEFDDWGRTA [T17F],2
20,FHCIETLVTTGANVNEGDDWGRTA [T17G],1.86
21,FHCIETLVTTGANVNEHDDWGRTA [T17H],1.83
22,FHCIETLVTTGANVNEIDDWGRTA [T17I],2.24
23,FHCIETLVTTGANVNEKDDWGRTA [T17K],2.02
24,FHCIETLVTTGANVNELDDWGRTA [T17L],1.76

row,Variant,protein stability index
1,FHCIETLVTTGANVNEMDDWGRTA [T17M],1.76
2,FHCIETLVTTGANVNENDDWGRTA [T17N],1.86
3,FHCIETLVTTGANVNEPDDWGRTA [T17P],2.6
4,FHCIETLVTTGANVNEQDDWGRTA [T17Q],2.27
5,FHCIETLVTTGANVNERDDWGRTA [T17R],1.71
6,FHCIETLVTTGANVNESDDWGRTA [T17S],2.61
7,FHCIETLVTTGANVNEVDDWGRTA [T17V],2
8,FHCIETLVTTGANVNEWDDWGRTA [T17W],2.04
9,FHCIETLVTTGANVNEYDDWGRTA [T17Y],1.9
10,FHCIETLVTTGANVNETADWGRTA [D18A],2.07
11,FHCIETLVTTGANVNETCDWGRTA [D18C],2.14
12,FHCIETLVTTGANVNETEDWGRTA [D18E],2.09
13,FHCIETLVTTGANVNETFDWGRTA [D18F],2.21
14,FHCIETLVTTGANVNETGDWGRTA [D18G],1.79
15,FHCIETLVTTGANVNETHDWGRTA [D18H],1.54
16,FHCIETLVTTGANVNETIDWGRTA [D18I],1.95
17,FHCIETLVTTGANVNETKDWGRTA [D18K],1.65
18,FHCIETLVTTGANVNETLDWGRTA [D18L],2.81
19,FHCIETLVTTGANVNETMDWGRTA [D18M],1.64
20,FHCIETLVTTGANVNETNDWGRTA [D18N],2.26
21,FHCIETLVTTGANVNETPDWGRTA [D18P],1.71
22,FHCIETLVTTGANVNETQDWGRTA [D18Q],1.69
23,FHCIETLVTTGANVNETRDWGRTA [D18R],2.17
24,FHCIETLVTTGANVNETSDWGRTA [D18S],2.18

row,Variant,protein stability index
1,FHCIETLVTTGANVNETTDWGRTA [D18T],1.85
2,FHCIETLVTTGANVNETVDWGRTA [D18V],2.43
3,FHCIETLVTTGANVNETWDWGRTA [D18W],2.07
4,FHCIETLVTTGANVNETYDWGRTA [D18Y],2.46
5,FHCIETLVTTGANVNETDAWGRTA [D19A],1.56
6,FHCIETLVTTGANVNETDCWGRTA [D19C],2.15
7,FHCIETLVTTGANVNETDEWGRTA [D19E],2.49
8,FHCIETLVTTGANVNETDFWGRTA [D19F],2.58
9,FHCIETLVTTGANVNETDGWGRTA [D19G],1.79
10,FHCIETLVTTGANVNETDHWGRTA [D19H],1.73
11,FHCIETLVTTGANVNETDIWGRTA [D19I],3.48
12,FHCIETLVTTGANVNETDKWGRTA [D19K],2.05
13,FHCIETLVTTGANVNETDLWGRTA [D19L],2.09
14,FHCIETLVTTGANVNETDMWGRTA [D19M],2
15,FHCIETLVTTGANVNETDNWGRTA [D19N],1.75
16,FHCIETLVTTGANVNETDPWGRTA [D19P],2.26
17,FHCIETLVTTGANVNETDQWGRTA [D19Q],2.06
18,FHCIETLVTTGANVNETDRWGRTA [D19R],1.66
19,FHCIETLVTTGANVNETDSWGRTA [D19S],1.72
20,FHCIETLVTTGANVNETDTWGRTA [D19T],1.88
21,FHCIETLVTTGANVNETDVWGRTA [D19V],2.18
22,FHCIETLVTTGANVNETDWWGRTA [D19W],2.44
23,FHCIETLVTTGANVNETDYWGRTA [D19Y],2.43
24,FHCIETLVTTGANVNETDDAGRTA [W20A],2.99

row,Variant,protein stability index
1,FHCIETLVTTGANVNETDDCGRTA [W20C],2.43
2,FHCIETLVTTGANVNETDDDGRTA [W20D],3.2
3,FHCIETLVTTGANVNETDDEGRTA [W20E],3.19
4,FHCIETLVTTGANVNETDDFGRTA [W20F],2.66
5,FHCIETLVTTGANVNETDDGGRTA [W20G],2.52
6,FHCIETLVTTGANVNETDDHGRTA [W20H],2.94
7,FHCIETLVTTGANVNETDDIGRTA [W20I],2.4
8,FHCIETLVTTGANVNETDDKGRTA [W20K],3.03
9,FHCIETLVTTGANVNETDDLGRTA [W20L],3.26
10,FHCIETLVTTGANVNETDDMGRTA [W20M],2.47
11,FHCIETLVTTGANVNETDDNGRTA [W20N],3.23
12,FHCIETLVTTGANVNETDDPGRTA [W20P],2.61
13,FHCIETLVTTGANVNETDDQGRTA [W20Q],2.66
14,FHCIETLVTTGANVNETDDRGRTA [W20R],2.57
15,FHCIETLVTTGANVNETDDSGRTA [W20S],3
16,FHCIETLVTTGANVNETDDTGRTA [W20T],3.27
17,FHCIETLVTTGANVNETDDVGRTA [W20V],2.77
18,FHCIETLVTTGANVNETDDYGRTA [W20Y],2.51
19,FHCIETLVTTGANVNETDDWARTA [G21A],2.12
20,FHCIETLVTTGANVNETDDWCRTA [G21C],1.76
21,FHCIETLVTTGANVNETDDWDRTA [G21D],2.71
22,FHCIETLVTTGANVNETDDWERTA [G21E],2.33
